Experimental data from publication PMC10184827.

Columns and labels:
[1] = biological target: rabbit muscle actin (RMA; α-actin) (rabbit) (UniProt P68135)
[2] = biological target: human γ-actin (γ1-actin, cytoplasmic actin, ACTG1) purified from budding yeast (human) (UniProt P63261)
[3] = biological target: human β-actin (cytoplasmic actin, ACTB) purified from budding yeast (human) (UniProt P60709)
[4] = biological target: rabbit muscle actin (RMA; α-actin) (rabbit) (UniProt P68135); experiment: TIRF microscopy of single filament polymerization; 1 µM total actin monomers with 10% fluorescently labeled RMA; TIRF buffer (20 mM imidazole pH 7.4, 50 mM KCl, 1 mM MgCl2, 1 mM EGTA, 0.2 mM ATP, 10 mM DTT, 40 mM glucose, 0.25% methylcellulose); monomer addition to growing filaments

Chain of mDia1(FH1-C) (amino acids 571–1255) (O08808 571-1255): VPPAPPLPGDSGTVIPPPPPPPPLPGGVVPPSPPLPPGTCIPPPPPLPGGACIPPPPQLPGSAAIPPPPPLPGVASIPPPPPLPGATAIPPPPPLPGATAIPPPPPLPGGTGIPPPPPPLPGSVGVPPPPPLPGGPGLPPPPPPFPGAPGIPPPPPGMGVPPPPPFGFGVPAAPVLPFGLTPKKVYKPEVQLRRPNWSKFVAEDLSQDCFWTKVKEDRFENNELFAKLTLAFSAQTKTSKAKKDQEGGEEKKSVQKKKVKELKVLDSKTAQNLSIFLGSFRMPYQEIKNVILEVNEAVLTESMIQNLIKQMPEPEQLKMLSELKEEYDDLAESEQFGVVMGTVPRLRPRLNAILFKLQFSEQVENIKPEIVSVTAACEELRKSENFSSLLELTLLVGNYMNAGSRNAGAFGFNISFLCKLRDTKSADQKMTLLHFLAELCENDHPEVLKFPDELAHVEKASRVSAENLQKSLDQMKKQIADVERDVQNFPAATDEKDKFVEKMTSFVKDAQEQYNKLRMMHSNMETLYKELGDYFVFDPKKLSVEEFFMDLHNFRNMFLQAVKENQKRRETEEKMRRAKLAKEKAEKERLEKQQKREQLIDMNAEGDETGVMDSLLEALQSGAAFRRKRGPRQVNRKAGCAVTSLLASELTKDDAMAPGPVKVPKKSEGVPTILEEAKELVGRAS

filament elongation rate (subunits s^−1 µM^−1) [4]	Substance	actin filament elongation rate by TIRF microscopy, 1 µM actin with 2 µM PFN1 and 10 nM mDia1(FH1-C) (subunits s^−1 µM^−1) [1]	actin filament elongation rate by TIRF microscopy, 1 µM actin with 2 µM PFN1 and 10 nM mDia1(FH1-C) (subunits s^−1 µM^−1) [2]	actin filament elongation rate by TIRF microscopy, 1 µM actin with 2 µM PFN1 and 10 nM mDia1(FH1-C) (subunits s^−1 µM^−1) [3]
	mDia1(FH1-C) (amino acids 571–1255) (from UniProt O08808 571-1255) (domain or fragment)	73.6	61.2	59.3
10	rabbit muscle actin (RMA; α-actin) (from UniProt P68135 1-377) (natural protein)			
